Experimental data reported in patent US20210347865A1 (STATEN BIOTECHNOLOGY B V, published 2021).
Residue numbers refer to the chain shown, from its start. One block for each binder: values may come before it.

Columns and labels:
native human ApoC3 [1] = target: T1, native human ApoC3 (human, UniProt P02656 21-99, biotinylated in the captured-antigen assays (Tables 6 and 8); sites not stated); experiment: SPR, antigen immobilized on CM5 chip, IgG as analyte, pH 7.4; footnote: n/a: not applicable; below the limits of detection kd: 1E-06 1/s
T1 construct: also called nhuApoC3; native huApoC3

native human ApoC3 [2] = target: T1, native human ApoC3; experiment: SPR, IgG captured via anti-human Fc, ApoC3 analyte 50 nM
Method: (§1) Immobilization was performed in accordance with the method provided by Biacore in the NHS/EDC kit (Biacore AB). Briefly, after activation of the chip, a solution of 30 μg/ml anti-human Fcγ antibody in 10 mM acetate buffer with pH 5.0 was injected until the surface density reached approximately 10,000 RU. […] Following antibody capture, 100 μl of HBS-EP buffer was injected and passed through the flow cells at 30 μl/min. To bind target, 60 μl of 400 nM, 200 nM, 100 nM, or 50 nM ApoC3 protein in HBS-EP buffer was injected. An off-rate wash was performed by injection of HBS-EP buffer at 30 μl/min for 5 min. After dissociation, the flow cell surfaces were regenerated by injecting 20 μl of 10 mM glycine at pH 1.5.
(§2) The resulting sensorgrams were analysed with BIAevaluation 4.1 software using the Langmuir 1:1 binding model to derive binding kinetics. Data was zero adjusted and the reference cell sensorgrams were subtracted. A no-analyte blank assay was used for double referencing the sensorgrams corresponding to nhuApoC3 and rcyApoC3 injections. The dissociation and association phase sensorgrams were fitted separately for the 4 different concentration curves. Sensorgrams were excluded from the fitting if maximum RU values were below the limit of detection (i.e., <5 RU). SPR signals were too low to calculate kinetic parameters for […].

native human ApoC3 [3] = target: T1, native human ApoC3; experiment: SPR, IgG captured via anti-human Fc, ApoC3 analyte 100 nM
Method: as §1, §2

native human ApoC3 [4] = target: T1, native human ApoC3; experiment: SPR, IgG captured via anti-human Fc, ApoC3 analyte 200 nM
Method: as §1, §2

native human ApoC3 [5] = target: T1, native human ApoC3; experiment: SPR, biotinylated antigen captured on streptavidin chip, IgG as analyte, pH 7.4
native human ApoC3 [6] = target: T1, native human ApoC3; experiment: SPR, IgG captured via anti-human Fc, ApoC3 analyte 400 nM
Method: as §1, §2

native human ApoC3 [7] = target: T1, native human ApoC3; experiment: SPR, Table 9 ('29A6-Nhance as the captured antigen'), analyte 0.78-25 nM, pH 7.4
Method: (§3) For the captured antigen approach, biotinylated native human ApoC3 was captured on a streptavidin coated chip (GE Healthcare #BR100032) at pH 7.4. In accordance with the methods provided by Biacore, 20 μl of 10 μg/ml biotinylated human ApoC3 was injected until the surface density reached approximately 500 RU. SPR methods and data analysis were followed as described in Example 2.1. SPR was also performed using these methods with the 29A06-Nhance antibody as the captured antigen. The 29A06-Nhance antibody comprises the heavy chain amino acid sequence set forth in SEQ ID NO: 38 and the light chain amino acid sequence set forth in SEQ ID NO: 50.
(§4) Similarly to the immobilized antigen approach, most of the clones had high affinity towards the human target and low off-rate values.

[8] = target: T2, recombinant cynomolgus ApoC3 (cynomolgus monkey, UniProt P18659 21-99, biotinylated in the captured-antigen assays (Tables 6 and 8); sites not stated); experiment: as above
T2 construct: No cleavage site is stated, so none is applied; also called rcyApoC3; bio-rcyApoC3
Method: as §3, §4

[9] = target: T2, recombinant cynomolgus ApoC3; experiment: SPR, biotinylated antigen captured on streptavidin chip, IgG as analyte, pH 7.4; biotinylated antigen captured on streptavidin chip, IgG as analyte
[10] = target: T2, recombinant cynomolgus ApoC3; experiment: SPR, antigen immobilized on CM5 chip, IgG as analyte, pH 7.4; antigen immobilized on chip, IgG as analyte (12.5-0.8 nM)
[11] = target: T2, recombinant cynomolgus ApoC3; experiment: SPR, biotinylated antigen captured on streptavidin chip, IgG as analyte, pH 7.4
native human ApoC3 [12] = target: T1, native human ApoC3; experiment: SPR, antigen immobilized on CM5 chip, IgG as analyte, pH 7.4
[13] = target: T2, recombinant cynomolgus ApoC3; experiment: SPR, IgG captured via anti-human Fc, ApoC3 analyte 50 nM
Method: as §1, §2

[14] = target: T2, recombinant cynomolgus ApoC3; experiment: SPR, IgG captured via anti-human Fc, ApoC3 analyte 100 nM
Method: as §1, §2

native human ApoC3 [15] = target: T1, native human ApoC3; experiment: SPR, biotinylated antigen captured on streptavidin chip, IgG as analyte, pH 7.4; footnote: n/a: not applicable; below the limits of detection kd: 1E-06 1/s
[16] = target: T2, recombinant cynomolgus ApoC3; experiment: SPR, IgG captured via anti-human Fc, ApoC3 analyte 200 nM
Method: as §1, §2

[17] = target: T2, recombinant cynomolgus ApoC3; experiment: SPR, antigen immobilized on CM5 chip, IgG as analyte, pH 7.4
[18] = target: T2, recombinant cynomolgus ApoC3; experiment: SPR, IgG captured via anti-human Fc, ApoC3 analyte 400 nM
Method: as §1, §2

[19] = target: T2, recombinant cynomolgus ApoC3; experiment: SPR, antigen immobilized on CM5 chip, IgG as analyte, pH 7.4; antigen immobilized on chip, IgG as analyte (50-0.8 nM)

T2 sequence (P18659 21-99 limits assumed): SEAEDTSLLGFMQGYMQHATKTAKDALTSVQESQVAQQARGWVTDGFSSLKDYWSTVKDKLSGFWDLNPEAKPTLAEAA
T1 sequence (P02656 21-99): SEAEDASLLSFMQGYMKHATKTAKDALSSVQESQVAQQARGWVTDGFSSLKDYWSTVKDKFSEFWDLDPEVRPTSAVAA

B1: 5E5 WT IgG (antibody, V domains shown)
VH: QLQLVESGGGLVQPGGSLRLSCAASGFTFGTYSMRWVRQVPRKALEWVSSISTDGGGTAYRDSVKGRFTISRDNAKNTLYLQMNNLKPEDTAIYYCVIAGYSDWGQGTQVTVSS
VL: ATMLTQSPGSLSVVPGESASISCKTSQGLVHSDGKTYFYWFLQKPGQSPQQLIYQVSNRASGVPDRFTGSGSGTDFTLKISGVKAEDAGVYYCAQGTYYPHTFGSGTRLEIK
notes: Full-length IgG captured by an anti-human Fc antibody
- koff (native human ApoC3 [1]): < 1e-06 s⁻¹
- Kd (native human ApoC3 [2]): 0.695 nM
- koff (native human ApoC3 [2]): 0.000114 s⁻¹
- kon (native human ApoC3 [2]): 164000 M⁻¹ s⁻¹
- Kd (native human ApoC3 [3]): 0.734 nM
- koff (native human ApoC3 [3]): 0.000121 s⁻¹
- kon (native human ApoC3 [3]): 165000 M⁻¹ s⁻¹
- Kd (native human ApoC3 [4]): 0.77 nM
- koff (native human ApoC3 [4]): 0.000128 s⁻¹
- kon (native human ApoC3 [4]): 166000 M⁻¹ s⁻¹
- Kd (native human ApoC3 [5]): 0.05 nM
- koff (native human ApoC3 [5]): 1.8e-05 s⁻¹
- kon (native human ApoC3 [5]): 350000 M⁻¹ s⁻¹
- Kd (native human ApoC3 [6]): 0.741 nM
- koff (native human ApoC3 [6]): 0.000122 s⁻¹
- kon (native human ApoC3 [6]): 165000 M⁻¹ s⁻¹

B2: 29A06-Nhance antibody (antibody, human IgG1, kappa, V domains shown)
VH: B1 VH
VL: DVVLTQTPGSLSVVPGESASISCKASQNLVHSNGKTYLYWLLQKPGQSPQRLIYQVSNRGSEVPDRFTGSGSGTDFTLKISGVKAEDAGVYYCAQGTYWPKTFGQGTKLEIKR
notes: IgG1 heavy chain with the Nhance Fc variant, and a kappa light chain; This is probably a print error; also called mAb 29A6-Nhance; 29A6-Nhance
- Kd (native human ApoC3 [7]): 0.023 nM
- kon (native human ApoC3 [7]): 770000 M⁻¹ s⁻¹
- Kd [8]: 0.675 nM

B4: 29B03 IgG (antibody, V domains shown)
VH: B1 VH
VL: DVVLTQTPGSLSVVPGESASISCKAGQNLVHPDGKTYLYWLLQKPGQSPQRLIYQVSNRDSGVPDRFTGSGSGTDFTLKISGVKVEDAGVYYCAQGTYWPKTFGQGTKLEIK
- koff (native human ApoC3 [1]): < 1e-06 s⁻¹
- Kd [13]: 190 nM
- koff [13]: 0.0127 s⁻¹
- kon [13]: 66800 M⁻¹ s⁻¹
- Kd (native human ApoC3 [3]): 0.336 nM
- koff (native human ApoC3 [3]): 8e-05 s⁻¹
- kon (native human ApoC3 [3]): 238000 M⁻¹ s⁻¹
- Kd [14]: 385 nM
- koff [14]: 0.014 s⁻¹
- kon [14]: 36300 M⁻¹ s⁻¹
- koff (native human ApoC3 [15]): < 1e-06 s⁻¹
- Kd (native human ApoC3 [4]): 0.35 nM
- koff (native human ApoC3 [4]): 8.44e-05 s⁻¹
- kon (native human ApoC3 [4]): 241000 M⁻¹ s⁻¹
- Kd [16]: 297 nM
- koff [16]: 0.0137 s⁻¹
- kon [16]: 46100 M⁻¹ s⁻¹
- Kd [11]: 0.33 nM
- koff [11]: 0.000104 s⁻¹
- kon [11]: 320000 M⁻¹ s⁻¹
- Kd [17]: 0.18 nM
- koff [17]: 6.7e-05 s⁻¹
- kon [17]: 380000 M⁻¹ s⁻¹
- Kd (native human ApoC3 [6]): 0.401 nM
- koff (native human ApoC3 [6]): 8.63e-05 s⁻¹
- kon (native human ApoC3 [6]): 215000 M⁻¹ s⁻¹
- Kd [18]: 367 nM
- koff [18]: 0.0145 s⁻¹
- kon [18]: 39600 M⁻¹ s⁻¹

Further lines, results first:

- koff [9]: 0.000228 s⁻¹
- kon [9]: 920000 M⁻¹ s⁻¹
- Kd (native human ApoC3 [2]): 4.79 nM
- koff (native human ApoC3 [2]): 0.00115 s⁻¹
- kon (native human ApoC3 [2]): 240000 M⁻¹ s⁻¹
- Kd (native human ApoC3 [3]): 4.85 nM
- koff (native human ApoC3 [3]): 0.00117 s⁻¹
- kon (native human ApoC3 [3]): 241000 M⁻¹ s⁻¹
- Kd [10]: 0.38 nM
- koff [10]: 0.000531 s⁻¹
- kon [10]: 1.4e+06 M⁻¹ s⁻¹
- Kd (native human ApoC3 [4]): 5.21 nM
- koff (native human ApoC3 [4]): 0.00122 s⁻¹
- kon (native human ApoC3 [4]): 234000 M⁻¹ s⁻¹
- Kd (native human ApoC3 [5]): 0.05 nM
- koff (native human ApoC3 [5]): 7.3e-05 s⁻¹
- kon (native human ApoC3 [5]): 1.38e+06 M⁻¹ s⁻¹
- Kd [11]: 0.25 nM
- Kd (native human ApoC3 [12]): 0.04 nM
- koff (native human ApoC3 [12]): 6.3e-05 s⁻¹
- kon (native human ApoC3 [12]): 1.44e+06 M⁻¹ s⁻¹
- Kd (native human ApoC3 [6]): 5.76 nM
- koff (native human ApoC3 [6]): 0.00119 s⁻¹
- kon (native human ApoC3 [6]): 207000 M⁻¹ s⁻¹
B3: 29G11 IgG (antibody, V domains shown)
VH: B1 VH
VL: DVVLTQTPGSLSVVPGGSASISCKASQSLVYSDGKTYLYWLRQKPGQSPQRLIYQVSNRPSGVPDRFTGSGSGTDFTLKISGVKAEDAGVYYCAQDTYSTKTFGQGTKLEIK

- Kd [19]: 2.79 nM
- koff [19]: 0.000774 s⁻¹
- kon [19]: 280000 M⁻¹ s⁻¹
- koff [9]: 0.000388 s⁻¹
- kon [9]: 220000 M⁻¹ s⁻¹
- Kd (native human ApoC3 [2]): 1.71 nM
- koff (native human ApoC3 [2]): 0.000246 s⁻¹
- kon (native human ApoC3 [2]): 144000 M⁻¹ s⁻¹
- Kd (native human ApoC3 [3]): 1.63 nM
- koff (native human ApoC3 [3]): 0.000219 s⁻¹
- kon (native human ApoC3 [3]): 134000 M⁻¹ s⁻¹
- koff (native human ApoC3 [15]): < 1e-06 s⁻¹
- Kd (native human ApoC3 [4]): 1.63 nM
- koff (native human ApoC3 [4]): 0.000217 s⁻¹
- kon (native human ApoC3 [4]): 133000 M⁻¹ s⁻¹
- Kd [11]: 1.75 nM
- Kd (native human ApoC3 [12]): 0.04 nM
- koff (native human ApoC3 [12]): 2.4e-05 s⁻¹
- kon (native human ApoC3 [12]): 620000 M⁻¹ s⁻¹
- Kd (native human ApoC3 [6]): 1.8 nM
- koff (native human ApoC3 [6]): 0.000219 s⁻¹
- kon (native human ApoC3 [6]): 122000 M⁻¹ s⁻¹
B5: 29F10 IgG (antibody, V domains shown)
VH: B1 VH
VL: B4 VL with S18P, I21V, G26S, N28S, D60G, K79E, V85A
